Assay: soluble on expression in E. coli; label from the status in PepcDB or PDB records

Question: For “MAPSLDSISHSFANGVASAKQAVNGASTNLAVAGSHLPTTQVTQVDIVEKMLAAPTDSTLELDGYSLNLGDVVSAARKGRPVRVKDSDEIRSKIDKSVEFLRSQLSMSVYGVTTGFGGSADTRTEDAISLQKALLEHQLCGVLPSSFDSFRLGRGLENSLPLEVVRGAMTIRVNSLTRGHSAVRLVVLEALTNFLNHGITPIVPLRGTISASGDLSPLSYIAAAISGHPDSKVHVVHEGKEKILYAREAMALFNLEPVVLGPKEGLGLVNGTAVSASMATLALHDAHMLSLLSQSLTAMTVEAMVGHAGSFHPFLHDVTRPHPTQIEVAGNIRKLLEGSRFAVHHEEEVKVKDDEGILRQDRYPLRTSPQWLGPLVSDLIHAHAVLTIEAGQSTTDNPLIDVENKTSHHGGNFQAAAVANTMEKTRLGLAQIGKLNFTQLTEMLNAGMNRGLPSCLAAEDPSLSYHCKGLDIAAAAYTSELGHLANPVTTHVQPAEMANQAVNSLALISARRTTESNDVLSLLLATHLYCVLQAIDLRAIEFEFKKQFGPAIVSLIDQHFGSAMTGSNLRDELVEKVNKTLAKRLEQTNSYDLVPRWHDAFSFAAGTVVEVLSSTSLSLAAVNAWKVAAAESAISLTRQVRETFWSAASTSSPALSYLSPRTQILYAFVREELGVKARRGDVFLGKQEVTIGSNVSKIYEAIKSGRINNVLLKMLA”, which “soluble on expression in E. coli” value is on record?
Answer: soluble

Question: For “MAQEIERKFLVSGDFKSFAFAQSRIMQGYICSARGRTVRVRIRDDKGYLTIKGASNESGTSRYEWEKELPLSEAEELMKLCEPGMIDKTRYLVRSGNHIFEVDEFYGENEGLIVAEVELGTEDEAFVKPGFIGEEVTGDVRYYNSHLMKKPYKMW”, which “soluble on expression in E. coli” value is on record?
Answer: not soluble

Question: Which “soluble on expression in E. coli” value does the source give for “MAQGFKITYTDQACLLDIQDPQNKESQSFHYALVPRGVEAENIPADYTVIETPIRSVICMTSLQLSNFIKLEELDAVVGITSTRHLFNKKINDRLKDGSIHKIGIEGNFDNEVIMSVNPDLILISPFKRGGYDALKEVGIPLMPHLGYKEMTPLGQAEWIKFVGLLLGREDKANKQFAAIKKRYNELKELTGLEHHHHHH” here?
Answer: not soluble

Question: For “MAQLYFYYSAMNAGKSTSLLQSSYNYRERGMNTLVMTASIDDRYGKGKVASRIGIESDAQVFSSHDNLIEMITAAHQENHLSCVLVDECQFLSKEQVKQLTYIVDKIDIPVLCYGLRTDFQGELFSGSHYLLAWADKLVELKTICHCGRKANMVVRLDGEGKVMREGEQVAIGGNESYESVCRKHFREFIWD”, which “soluble on expression in E. coli” value is on record?
Answer: soluble

Question: For “MAQPSTTYKFELNLTDLDRGVYESVKQTIARHPSETEERMTVRLLAYAFWYNEQLAFGRGLSDVDEPALWEKSLDDRVLHWIEVGQPDADRLTWCSRRTERTSLLAYGSLRVWEGKVIPAIKNLKNVNIAAVPQDVLEVLAKDMPRVIKWDVMISEGTVFVTDDRGQHEVQLQWLTGERG”, which “soluble on expression in E. coli” value is on record?
Answer: soluble

Question: For “MAQQETPQDKRRRHARVDNVIYANFGAKTTVRTEPEAPEIVESRNFSPVALRIRDLATQEADAGRLKRGRDYARSGHVLNVKFGNSLITADVAGSQNLPFQVSIAFPYLSTDGLSQITQYIAASPDGLNAARHGQLSEDILDLLLGTQVTFRCDCPDHVVCCKHSVAVVTVASEKVEADPLLAFRLRGLDLAQLEQAVTMQARAASTQDLKERFWQGRDLPSLPEPKIAPALDDSDASLLHKAMRLVSYTNIDELRAVSDIEDIYYHLTHEKG”, which “soluble on expression in E. coli” value is on record?
Answer: not soluble

Question: With “MAQSVPPGDIQTQPGTKIVFNAPYDDKHTYHIKVINSSARRIGYGIKTTNMKRLGVDPPCGVLDPKEAVLLAVSCDAFAFGQEDTNNDRITVEWTNTPDGAAKQFRREWFQGDGMARRKNLPIEYNP” as the sequence, how does the “soluble on expression in E. coli” value read?
Answer: not soluble

Question: Which “soluble on expression in E. coli” value does the source give for “MAQTQSPLQWLATTLIRGYQIFISPILGPRCRFNPTCSHYAIEAIKVHGTAKGCWFALKRILKCHPLHPGGSDPVPPKNDRCNKLEHHHHHH” here?
Answer: not soluble

Question: Which “soluble on expression in E. coli” value does the source give for “MAQVAIFKEIFDQVRKDLNCELFYSELKRHNVSHYIYYLATDNIHIVLENDNTVLIKGLKKVVNVKFSRNTHLIETSYDRLKSREITFQQYRENLAKAGVFRWITNIHEHKRYYYTFDNSLLFTESIQNTTQIFPR” here?
Answer: not soluble

Question: Which “soluble on expression in E. coli” value does the source give for “MAQYKGAASEAGRAMHLMKKREKQREQMEQMKQRIAEENIMKSNIDKKFSAHYDAVEAELKSSTVGLVTLNDMKAKQEALVKEREKQLAKKEQSKELQMKLEKLREKERKKEAKRKISSLSFTLEEEEEGGEEEEEAAMYEEEMEREEITTKKRKLGKNPDVDTSFLPDRDREEEENRLREELRQEWEAKQEKIKSEEIEITFSYWDGSGHRRTVKMRKGNTMQQFLQKALEILRKDFSELRSAGVEQLMYIKEDLIIPHHHSFYDFIVTKARGKSGPLFNFDVHDDVRLLSDATVEKDESHAGKVVLRSWYEKNKHIFPASRWEPYDPEKKWDKYTIR” here?
Answer: soluble

Question: Which “soluble on expression in E. coli” value does the source give for “MARAIAIDAPLSAGIRRTKKSPIKRASVGGVKKRFSTGTAGPSRRPTAQPRRQSGGIRTVDRSIPANENREVRINLSNLAHTVHSGDLRQLFAEFKIRNVSVNFNEHGKPVGTGDVTLPKRHADRLIQKFAGVSLDGKEIKFAIIDSANIANRVKFPEAPRRAPSNGRPAQRAPKRQNVKSGKPTGGAGAQKKLKAKKPKREAQPKKTLEELDAELDVYMSKA” here?
Answer: not soluble

Question: For “MARDEVRRILPADIKREVLIKDENAETNPDWGFPPEKRPIEMHIQFGVINLDKPPGPTSHEVVAWIKKILNLEKAGHGGTLDPKVSGVLPVALEKATRVVQALLPAGKEYVALMHLHGDVPEDKIIQVMKEFEGEIIQRPPLRSAVKRRLRTRKVYYIEVLEIEGRDVLFRVGVEAGTYIRSLIHHIGLALGVGAHMSELRRTRSGPFKEDETLITLHDLVDYYYFWKEDGIEEYFRKAIQPMEKAVEHLPKVWIKDSAVAAVTHGADLAVPGIAKLHAGIKRGDLVAIMTLKDELVALGKAMMTSQEMLEKTKGIAVDVEKVFMPRDWYPKLWEKRDRSHHHHHH”, which “soluble on expression in E. coli” value is on record?
Answer: soluble

Question: With “MARDGGVSCLRRSEMMSVGGIGGIESAPLDLDEVHVLAVDDSLVDRIVIERLLRITSCKVTAVDSGWRALEFLGLDNEKASAEFDRLKVDLIITDYCMPGMTGYELLKKIKESSNFREVPVVIMSSENVLTRIDRCLEEGAQDFLLKPVKLADVKRLRSHLTKDVKLSNGNKRKLPEDSSSVNSSLPPPSPPLTISPESSPPLTVSTESSDSSPPLSPVEIFSTSPLSSPIDDEDDDVLTSSSEESPIRRQKMRSPGLD” as the sequence, how does the “soluble on expression in E. coli” value read?
Answer: not soluble

Question: Which “soluble on expression in E. coli” value does the source give for “MAREAKKDPNELTVEQKLKTLFQLQTMLSKIDEIKTLRGELPLEVQDLEDEIAGLSTRIDKIKAEVDELKSAIAGKRVEIETAKASVEKYKSQQDNVRNNREYDFLTKEIEFQSLEIELCEKRIKEFSADREEKEAEVVKNEQILSERQKDLEQKKGELDEIISETKQEEEKLRDKAKDLETKIEPRLLQSFKRIRKNSRNGLGVVYVQRDACGGCFNKIPPQRQLDIRSRKKVIVCEYCGRIMIDPELAGVQIEHKVEEAPATTTKRAIRRKTAE” here?
Answer: not soluble

Question: For “MAREVKLTKAGYERLMQQLERERERLQEATKILQELMESSDDYDDSGLEAAKQEKARIEARIDSLEDILSRAVILEEGSGEVIGLGSVVELEDPLSGERLSVQVVSPAEANVLDTPMKISDASPMGKALLGHRVGDVLSLDTPKGRREFRVVAIHG”, which “soluble on expression in E. coli” value is on record?
Answer: soluble

Question: Which “soluble on expression in E. coli” value does the source give for “MARGIKLVIFDVDGVLVEVKSSWGYIHRRLGVEEEAMKVKEMFERGSIDYIEWMRLDTELWIRASGGRLHRSRLMEIVGEIPVRKEAFEAVRMLRRMGLRIGLVSSGIDLLVRRVAAEIGADAWASNRLLFDKNGFLQPGGSPLVGVDKRGAVTRMAYELGASLEEVAYVGDSRWDASAMSIVGLPIAYNDGGELDGVARARVDSLLDVPRVVAEWGRARAR” here?
Answer: not soluble

Question: With “MARLAIGGGSLCPAYGALRMQPVSTFPIYIVSIARARARLEKMLEGASGLGLDLRPVEGVDGKTISPDDWRDFDRRGFELRNGRHALPGEYGCYASHIKALETFLATDAPVAVIVEDDVAFTPDFSERVKAMVAAMPDDAIVKLTNHRRKGFKARKTSALGDTFGRCIYGPQGSSACYIISRRAAERFLKAARRMTLPFDRALECGWGYGTEVYITDKDFLPFGDPDTLVGTRDEYRGSKFARLKRVPAYLSSFYDNIARYIYAYRLEHHHHHH” as the sequence, how does the “soluble on expression in E. coli” value read?
Answer: soluble

Question: For “MARLSDLIEAFIKQLIDDTDGTIEIQRNELASQFNCVPSQINYVIDTRFTTERGYYVESRRGGGGYIKITRVSIGHEGKNYLMHIINSMGDSISQQSAHVFINNFVDHNVVTEKEAMLLKAATSDKALAAVPVESRGQIRASILKNMLVCLLV”, which “soluble on expression in E. coli” value is on record?
Answer: soluble

Reference: the DeepSol protein solubility set
